Laboratory results published in the supplement of paper PMC10126150.
± gives the standard deviation of the averaged measurements.

test system: ATP; test: switch fluorescence ratio, 500 uM ATP over buffer (Cy3 cluster intensity, sum of 5 cycles each) (fold (ratio)); higher = stronger signal-on switching upon ATP binding; sequences stand for … in TCGTCGGCAGCGTCAGATGTGTATAAGAGACAGTTTTTTTTTTTTTTTTTTTTTTTTT…TC; conditions: aptamer strand: ATP DNA aptamer (quencher-CACCTGGGGGAGTATTGCGGAGGAAGG + anchor), 100 nM annealed; ATP concentration: 500 uM
Outline: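 Cy3-labelled switching-strand clusters on a modified Illumina MiSeq flow-cell were annealed to 100 nM quencher-labelled ATP aptamer, imaged in selection buffer, then imaged after 15 min with 500 uM ATP at 22 °C. Five buffer/ATP cycles ran, with NaOH stripping and re-annealing between them. The fluorescence ratio is summed target-cycle over summed buffer-cycle Cy3 intensity per cluster, averaged per switch-domain sequence. Clusters outside 100-1000 RFU were excluded.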
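Also: ATP exposure 15 min at 22 °C before imaging.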

Sequence | switch fluorescence ratio
TTTGGACAAG | 1 ± 0.061
CAGTGACTGT | 0.98 ± 0.034
AACCTATGGT | 0.978 ± 0.0042
ATCTAGTTTG | 1.01 ± 0.045
TTTTTTATA | 0.996 ± 0.032
TTAATTTATG | 0.976 ± 0.035
TATGTGGTTG | 0.99 ± 0.016
AGTAGGGGTA | 0.974 ± 0.039
GAACGGTGTG | 0.996 ± 0.0057
GGAGGGCTCG | 0.981 ± 0.043
CGCGAAAATG | 1.02 ± 0.022
AGATAGGG | 0.96188 ± 0.00038
TTCATGATTT | 1.034 ± 0.0045
GGGCCTCGGG | 0.953 ± 0.04
CATCGTGTGT | 0.972 ± 0.011
GGGCTAGTTA | 0.9948 ± 0.0073
TGGTAGGTGG | 1.017 ± 0.0049
ACAAGTATGT | 1.02 ± 0.041
TTCTTCATAG | 1.02 ± 0.015
TGGTTACGTT | 0.983 ± 0.018
TTAATTAATG | 1.05 ± 0.089
TTCCAGGGGA | 1.08 ± 0.11
AGTGTTACGT | 0.989 ± 0.042
TTCTGCCCC | 1.01 ± 0.033
AAGAGATTTG | 0.981 ± 0.018

Sequence | switch fluorescence ratio
CGGTTGTGAG | 1.01 ± 0.031
AGGAGTGTCG | 1.04 ± 0.039
CCGAGGGCGC | 1.2 ± 0.031
GATCCGAGAC | 1.516 ± 0.0088
TGCTGTAGGG | 0.966 ± 0.053
CGCCATAGTG | 1.01 ± 0.039
GAGGAGGAAT | 1.01 ± 0.017
AAGGAGTAGC | 1.04 ± 0.095
TTTGGTAAGC | 1.02 ± 0.036
CGTTGTCATC | 1.01 ± 0.06
GATAGGGTTT | 1.06 ± 0.076
GATAGTAATG | 1.01 ± 0.018
TGGCGTGGGG | 1.01 ± 0.021
ATGTAGTTGT | 0.979 ± 0.041
GGCGATCGCG | 1.02 ± 0.04
CAATTGTACT | 0.994 ± 0.013
ATTCGTCAAT | 1.18 ± 0.13
ACCGGTTAAC | 1.02 ± 0.035
AACTGCAACA | 1.22 ± 0.031
CATTGGTGAG | 0.992 ± 0.032
ATGCACGTGG | 1.008 ± 0.003
TTTTTATAGT | 1.02 ± 0.022
AATTTTTAGG | 0.98099 ± 2.5e-05
ATGAGTTGGT | 0.982 ± 0.033
ATCAAATCGA | 1 ± 0.043

Sequence | switch fluorescence ratio
TGGGTTGGGG | 1.01 ± 0.049
CATAGGTCTA | 0.996 ± 0.019
TAATTGGGGT | 0.994 ± 0.018
CAAGCGTCAC | 1.12 ± 0.019
TAAAGGGGGT | 1.01 ± 0.047
TGTTGGCTTT | 1.06 ± 0.022
TCATTCGTCC | 1.099 ± 0.0056
AATGTCATTT | 1 ± 0.018
CCTCAATGGT | 1.39 ± 0.045
TTAAGCTGGT | 0.985 ± 0.022
TGTTAAAGGG | 1.03 ± 0.024
GGGGCTGCGC | 1.05 ± 0.1
AAGAGCGAAG | 1.01 ± 0.014
TATGTACTAG | 1.049 ± 0.0089
GGTTATGGAG | 0.964 ± 0.046
GCGGACTAGT | 0.9883 ± 0.0052
GCAATCGGGA | 1.2 ± 0.087
TGGGTGTCGC | 0.9672 ± 0.0039
AACGTGCGTG | 0.9973 ± 0.0028
TGAAAAAATT | 1.02 ± 0.071
GCAGCTGGCA | 0.984 ± 0.017
TGTAAGTTTC | 1.04 ± 0.073
TTGGGAGGCT | 1 ± 0.044
TCGCGTTTTT | 0.994 ± 0.031
GATGTTTAGT | 1.04 ± 0.018

Sequence | switch fluorescence ratio
TGTGGGTAAA | 1.01 ± 0.042
TAGGGGCGTG | 0.998 ± 0.039
CAGTCCGTTT | 1.02 ± 0.012
TGGTGCAGGC | 0.702 ± 0.023
TTAATAAATC | 0.996 ± 0.021
TCTAGAACGC | 1.01 ± 0.013
AATCGGGAGT | 1.013 ± 0.0094
TTGTGAATTC | 0.977 ± 0.043
CGTCTTTTAT | 0.9935 ± 0.0043
ATGGGGGTAG | 1.01 ± 0.048
GTGTCTTGGA | 0.9893 ± 0.0052
TAAGGCTGAC | 1.15 ± 0.023
TATTTATGTA | 1.01 ± 0.045
TGTTTTTATA | 1.005 ± 0.0091
AGTAAGGGGT | 0.982 ± 0.021
CATTTTATAT | 1.02 ± 0.012
GTCTGAGGTT | 0.963 ± 0.015
AGGAAGAACG | 1.04 ± 0.02
TGGAGGGGGA | 0.999 ± 0.038
AACGGACGGG | 1.27 ± 0.095
GGGGGCTGAA | 0.985 ± 0.027
GTGGATACTA | 1.009 ± 0.0047
TTTCTTGGTA | 1.02 ± 0.024
GAAACAGGCA | 0.963 ± 0.017
GAGGTTCAGT | 0.989 ± 0.011
